Here are results for 2 molecules from publication PMC5686756, “IKKγ-Mimetic Peptides Block the Resistance to Apoptosis Associated with Kaposi's Sarcoma-Associated Herpesvirus Infection” (Journal of Virology, 2017).

The target of test [1] is T1, GB1-tagged ks-vFLIP (residues 1 to 188) (Kaposi's sarcoma-associated herpesvirus …, UniProt Q76RF1 1-188).
T1 construct: KSHV vFLIP (ks-vFLIP), residues 1 to 188, cloned into GB1-pBR22b (modified pET22b); GB1 is the streptococcal protein G immunoglobulin domain fusion tag; also called GB1–ks-vFLIP; GB1-vFLIP; source: E. coli BL21(DE3), purified (His-trap, Superdex S75 size exclusion); not shown: GB1, N-terminal, kept
Put plainly: ITC; IKKγ(150–272) (~85-100 μM, syringe) titrated into GB1-vFLIP (~8-10 μM, cell); deionized water, 4% DMSO, 25°C; one-site model; apparent. The settings on record: both partners purified.

Test [2] addresses T1, GB1-tagged ks-vFLIP (residues 1 to 188). Put plainly: ITC; competition: GB1–ks-vFLIP first incubated with 20 μM spIKKγ and 4% DMSO, then titrated with IKKγ(150–272); deionized water, 25°C; apparent. The settings on record: both partners purified.

Positions of bridges follow the written chain, without caps; N, C: chain ends. Non-standard residues stand in square brackets, D forms with d. No end group written: not given here. S5 = C=CCCC[C@](C)(N)C(=O)O

B1: IKKγ fragment encompassing residues 150 to 272 (domain or fragment, UniProt Q9Y6K9 150-272, looked up)
chain: LGELQESQSRLEAATKECQALEGRARAASEQARQLESEREALQQQHSVQVDQLRMQGQSVEAALRMERQAASEEKRKLAQLQVAYHQLFQEYDNHIKSSVVGSERKRGMQLEDLKQQLQQAEE
notes: also called IKKγ(150–272); NEMO
Regarding B1, the Kd in test [1] came to 380 nM. For the same molecule, the “apparent Kd in the presence of spIKKγ (20 μM)” value in test [2] was 30000 nM.

For LQVAYH[S5]LFQ[S5]YDNHIKSSC (staple 7-11) [spIKKγ, conformationally constrained stapled 20-mer peptide of the IKKγ minimal interacting motif (L], the Ki in test [2] is 257 nM.
